B1: GLS3000 H34W one-arm antibody (antibody, human IgG1, kappa, L234A L235A, N297A, name in Kabat numbering)
light: DIVMTQSPLSLPVTPGEPASISCRSSQSLVHSNRNTYLWWYQQKPGQAPRLLIYKVSNRFSGVPDRFSGSGSGTDFTLKISRVEAEDVGVYYCGQGTQVPYTFGQGTKLEIKRTVAAPSVFIFPPSDEQLKSGTASVVCLLNNFYPREAKVQWKVDNALQSGNSQESVTEQDSKDSTYSLSSTLTLSKADYEKHKVYACEVTHQGLSSPVTKSFNRGEC
heavy: QVQLVESGGGVVQPGRSLRLSCAASGFTFSNAWMHWVRQAPGKGLEWVAQIKAKSNNYATYYAESVKGRFTISRDDSKNSLYLQMNSLKTEDTAVYYCRYVHYGAYYGVDAWGQGTTVTVSSASTKGPSVFPLAPSSKSTSGGTAALGCLVKDYFPEPVTVSWNSGALTSGVHTFPAVLQSSGLYSLSSVVTVPSSSLGTQTYICNVNHKPSNTKVDKKVEPKSCDKTHTCPPCPAPEAAGGPSVFLFPPKPKDTLMISRTPEVTCVVVDVSHEDPEVKFNWYVDGVEVHNAKTKPREEQYASTYRVVSVLTVLHQDWLNGKEYKCKVSNKALPAPIEKTISKAKGQPREPQVYTLPPSRCELTKNQVSLSCAVKGFYPSDIAVEWESNGQPENNYKTTPPVLDSDGSFFLVSKLTVDKSRWQQGNVFSCSVMHEALHNHYTQKSLSLSPDYKDDDDK
chain: EPKSSDKTHTCPPCPAPELLGGPSVFLFPPKPKDTLMISRTPEVTCVVVDVSHEDPEVKFNWYVDGVEVHNAKTKPREEQYNSTYRVVSVLTVLHQDWLNGKEYKCKVSNKALPAPIEKTISKAKGQPREPQVCTLPPSRDELTKNQVSLWCLVKGFYPSDIAVEWESNGQPENNYKTTPPVLDSDGSFFLYSKLTVDKSRWQQGNVFSCSVMHEALHNRYTQKSLSLSP
B2: GLS3000 K50P one-arm antibody (antibody, human IgG1, kappa, L234A L235A, N297A, name in Kabat numbering)
light: DIVMTQSPLSLPVTPGEPASISCRSSQSLVHSNRNTYLHWYQQKPGQAPRLLIYPVSNRFSGVPDRFSGSGSGTDFTLKISRVEAEDVGVYYCGQGTQVPYTFGQGTKLEIKRTVAAPSVFIFPPSDEQLKSGTASVVCLLNNFYPREAKVQWKVDNALQSGNSQESVTEQDSKDSTYSLSSTLTLSKADYEKHKVYACEVTHQGLSSPVTKSFNRGEC
heavy: QVQLVESGGGVVQPGRSLRLSCAASGFTFSNAWMHWVRQAPGKGLEWVAQIKAKSNNYATYYAESVKGRFTISRDDSKNSLYLQMNSLKTEDTAVYYCRYVHYGAYYGVDAWGQGTTVTVSSASTKGPSVFPLAPSSKSTSGGTAALGCLVKDYFPEPVTVSWNSGALTSGVHTFPAVLQSSGLYSLSSVVTVPSSSLGTQTYICNVNHKPSNTKVDKKVEPKSCDKTHTCPPCPAPEAAGGPSVFLFPPKPKDTLMISRTPEVTCVVVDVSHEDPEVKFNWYVDGVEVHNAKTKPREEQYASTYRVVSVLTVLHQDWLNGKEYKCKVSNKALPAPIEKTISKAKGQPREPQVYTLPPSRCELTKNQVSLSCAVKGFYPSDIAVEWESNGQPENNYKTTPPVLDSDGSFFLVSKLTVDKSRWQQGNVFSCSVMHEALHNHYTQKSLSLSPDYKDDDDK
chain: EPKSSDKTHTCPPCPAPELLGGPSVFLFPPKPKDTLMISRTPEVTCVVVDVSHEDPEVKFNWYVDGVEVHNAKTKPREEQYNSTYRVVSVLTVLHQDWLNGKEYKCKVSNKALPAPIEKTISKAKGQPREPQVCTLPPSRDELTKNQVSLWCLVKGFYPSDIAVEWESNGQPENNYKTTPPVLDSDGSFFLYSKLTVDKSRWQQGNVFSCSVMHEALHNRYTQKSLSLSP
B3: GLS3000 K50L one-arm antibody (antibody, human IgG1, kappa, L234A L235A, N297A, name in Kabat numbering)
light: DIVMTQSPLSLPVTPGEPASISCRSSQSLVHSNRNTYLHWYQQKPGQAPRLLIYLVSNRFSGVPDRFSGSGSGTDFTLKISRVEAEDVGVYYCGQGTQVPYTFGQGTKLEIKRTVAAPSVFIFPPSDEQLKSGTASVVCLLNNFYPREAKVQWKVDNALQSGNSQESVTEQDSKDSTYSLSSTLTLSKADYEKHKVYACEVTHQGLSSPVTKSFNRGEC
heavy: QVQLVESGGGVVQPGRSLRLSCAASGFTFSNAWMHWVRQAPGKGLEWVAQIKAKSNNYATYYAESVKGRFTISRDDSKNSLYLQMNSLKTEDTAVYYCRYVHYGAYYGVDAWGQGTTVTVSSASTKGPSVFPLAPSSKSTSGGTAALGCLVKDYFPEPVTVSWNSGALTSGVHTFPAVLQSSGLYSLSSVVTVPSSSLGTQTYICNVNHKPSNTKVDKKVEPKSCDKTHTCPPCPAPEAAGGPSVFLFPPKPKDTLMISRTPEVTCVVVDVSHEDPEVKFNWYVDGVEVHNAKTKPREEQYASTYRVVSVLTVLHQDWLNGKEYKCKVSNKALPAPIEKTISKAKGQPREPQVYTLPPSRCELTKNQVSLSCAVKGFYPSDIAVEWESNGQPENNYKTTPPVLDSDGSFFLVSKLTVDKSRWQQGNVFSCSVMHEALHNHYTQKSLSLSPDYKDDDDK
chain: EPKSSDKTHTCPPCPAPELLGGPSVFLFPPKPKDTLMISRTPEVTCVVVDVSHEDPEVKFNWYVDGVEVHNAKTKPREEQYNSTYRVVSVLTVLHQDWLNGKEYKCKVSNKALPAPIEKTISKAKGQPREPQVCTLPPSRDELTKNQVSLWCLVKGFYPSDIAVEWESNGQPENNYKTTPPVLDSDGSFFLYSKLTVDKSRWQQGNVFSCSVMHEALHNRYTQKSLSLSP
B4: GLS3000 K50E one-arm antibody (antibody, human IgG1, kappa, L234A L235A, N297A, name in Kabat numbering)
light: DIVMTQSPLSLPVTPGEPASISCRSSQSLVHSNRNTYLHWYQQKPGQAPRLLIYEVSNRFSGVPDRFSGSGSGTDFTLKISRVEAEDVGVYYCGQGTQVPYTFGQGTKLEIKRTVAAPSVFIFPPSDEQLKSGTASVVCLLNNFYPREAKVQWKVDNALQSGNSQESVTEQDSKDSTYSLSSTLTLSKADYEKHKVYACEVTHQGLSSPVTKSFNRGEC
heavy: QVQLVESGGGVVQPGRSLRLSCAASGFTFSNAWMHWVRQAPGKGLEWVAQIKAKSNNYATYYAESVKGRFTISRDDSKNSLYLQMNSLKTEDTAVYYCRYVHYGAYYGVDAWGQGTTVTVSSASTKGPSVFPLAPSSKSTSGGTAALGCLVKDYFPEPVTVSWNSGALTSGVHTFPAVLQSSGLYSLSSVVTVPSSSLGTQTYICNVNHKPSNTKVDKKVEPKSCDKTHTCPPCPAPEAAGGPSVFLFPPKPKDTLMISRTPEVTCVVVDVSHEDPEVKFNWYVDGVEVHNAKTKPREEQYASTYRVVSVLTVLHQDWLNGKEYKCKVSNKALPAPIEKTISKAKGQPREPQVYTLPPSRCELTKNQVSLSCAVKGFYPSDIAVEWESNGQPENNYKTTPPVLDSDGSFFLVSKLTVDKSRWQQGNVFSCSVMHEALHNHYTQKSLSLSPDYKDDDDK
chain: EPKSSDKTHTCPPCPAPELLGGPSVFLFPPKPKDTLMISRTPEVTCVVVDVSHEDPEVKFNWYVDGVEVHNAKTKPREEQYNSTYRVVSVLTVLHQDWLNGKEYKCKVSNKALPAPIEKTISKAKGQPREPQVCTLPPSRDELTKNQVSLWCLVKGFYPSDIAVEWESNGQPENNYKTTPPVLDSDGSFFLYSKLTVDKSRWQQGNVFSCSVMHEALHNRYTQKSLSLSP
B5: GLS3000 H34Y one-arm antibody (antibody, human IgG1, kappa, L234A L235A, N297A, name in Kabat numbering)
light: DIVMTQSPLSLPVTPGEPASISCRSSQSLVHSNRNTYLYWYQQKPGQAPRLLIYKVSNRFSGVPDRFSGSGSGTDFTLKISRVEAEDVGVYYCGQGTQVPYTFGQGTKLEIKRTVAAPSVFIFPPSDEQLKSGTASVVCLLNNFYPREAKVQWKVDNALQSGNSQESVTEQDSKDSTYSLSSTLTLSKADYEKHKVYACEVTHQGLSSPVTKSFNRGEC
heavy: QVQLVESGGGVVQPGRSLRLSCAASGFTFSNAWMHWVRQAPGKGLEWVAQIKAKSNNYATYYAESVKGRFTISRDDSKNSLYLQMNSLKTEDTAVYYCRYVHYGAYYGVDAWGQGTTVTVSSASTKGPSVFPLAPSSKSTSGGTAALGCLVKDYFPEPVTVSWNSGALTSGVHTFPAVLQSSGLYSLSSVVTVPSSSLGTQTYICNVNHKPSNTKVDKKVEPKSCDKTHTCPPCPAPEAAGGPSVFLFPPKPKDTLMISRTPEVTCVVVDVSHEDPEVKFNWYVDGVEVHNAKTKPREEQYASTYRVVSVLTVLHQDWLNGKEYKCKVSNKALPAPIEKTISKAKGQPREPQVYTLPPSRCELTKNQVSLSCAVKGFYPSDIAVEWESNGQPENNYKTTPPVLDSDGSFFLVSKLTVDKSRWQQGNVFSCSVMHEALHNHYTQKSLSLSPDYKDDDDK
chain: EPKSSDKTHTCPPCPAPELLGGPSVFLFPPKPKDTLMISRTPEVTCVVVDVSHEDPEVKFNWYVDGVEVHNAKTKPREEQYNSTYRVVSVLTVLHQDWLNGKEYKCKVSNKALPAPIEKTISKAKGQPREPQVCTLPPSRDELTKNQVSLWCLVKGFYPSDIAVEWESNGQPENNYKTTPPVLDSDGSFFLYSKLTVDKSRWQQGNVFSCSVMHEALHNRYTQKSLSLSP
B6: GLS3000 K50G one-arm antibody (antibody, human IgG1, kappa, L234A L235A, N297A, name in Kabat numbering)
light: DIVMTQSPLSLPVTPGEPASISCRSSQSLVHSNRNTYLHWYQQKPGQAPRLLIYGVSNRFSGVPDRFSGSGSGTDFTLKISRVEAEDVGVYYCGQGTQVPYTFGQGTKLEIKRTVAAPSVFIFPPSDEQLKSGTASVVCLLNNFYPREAKVQWKVDNALQSGNSQESVTEQDSKDSTYSLSSTLTLSKADYEKHKVYACEVTHQGLSSPVTKSFNRGEC
heavy: QVQLVESGGGVVQPGRSLRLSCAASGFTFSNAWMHWVRQAPGKGLEWVAQIKAKSNNYATYYAESVKGRFTISRDDSKNSLYLQMNSLKTEDTAVYYCRYVHYGAYYGVDAWGQGTTVTVSSASTKGPSVFPLAPSSKSTSGGTAALGCLVKDYFPEPVTVSWNSGALTSGVHTFPAVLQSSGLYSLSSVVTVPSSSLGTQTYICNVNHKPSNTKVDKKVEPKSCDKTHTCPPCPAPEAAGGPSVFLFPPKPKDTLMISRTPEVTCVVVDVSHEDPEVKFNWYVDGVEVHNAKTKPREEQYASTYRVVSVLTVLHQDWLNGKEYKCKVSNKALPAPIEKTISKAKGQPREPQVYTLPPSRCELTKNQVSLSCAVKGFYPSDIAVEWESNGQPENNYKTTPPVLDSDGSFFLVSKLTVDKSRWQQGNVFSCSVMHEALHNHYTQKSLSLSPDYKDDDDK
chain: EPKSSDKTHTCPPCPAPELLGGPSVFLFPPKPKDTLMISRTPEVTCVVVDVSHEDPEVKFNWYVDGVEVHNAKTKPREEQYNSTYRVVSVLTVLHQDWLNGKEYKCKVSNKALPAPIEKTISKAKGQPREPQVCTLPPSRDELTKNQVSLWCLVKGFYPSDIAVEWESNGQPENNYKTTPPVLDSDGSFFLYSKLTVDKSRWQQGNVFSCSVMHEALHNRYTQKSLSLSP

These binders were tested against T1, CD3 epsilon homodimer protein (UniProt P07766 23-126) (assay: SPR Biacore T200, CD3e homodimer on chip, antibody analyte;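 note: CD3 epsilon homodimer amine-coupled on CM4 sensor chip, antibodies injected as analyte at 25 °C in HBS-EP+, ratio ≥0.8 taken as binding retained versus unaltered parent antibody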).
T1 construct: Construct of the homodimer is not described; also called CD3 (CD3 epsilon)
T1 sequence (P07766 23-126): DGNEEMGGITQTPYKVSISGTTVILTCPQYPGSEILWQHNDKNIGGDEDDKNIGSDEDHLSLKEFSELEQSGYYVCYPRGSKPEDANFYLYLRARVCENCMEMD
With B1 the “ratio of amounts bound (altered form/GLS3000)” value was 0.24.
With B2 the “ratio of amounts bound (altered form/GLS3000)” value was 0.3.
In the case of B3, the “ratio of amounts bound (altered form/GLS3000)” value is reported as 0.24.
With B4 the “ratio of amounts bound (altered form/GLS3000)” value was 0.24.
B5 was tested, and the “ratio of amounts bound (altered form/GLS3000)” value was 0.59.
In the case of B6, the “ratio of amounts bound (altered form/GLS3000)” value is reported as 0.16.
